Paper PMC2887947
Read-outs that look alike come from different tables or passages of the source.

What was measured:
Assay in all cases: EMSA
[1] = biological target: T1, M. tuberculosis H-NS (Mycobacterium tuberculosis H37Rv, UniProt I6YHB0 1-134)
T1 sequence: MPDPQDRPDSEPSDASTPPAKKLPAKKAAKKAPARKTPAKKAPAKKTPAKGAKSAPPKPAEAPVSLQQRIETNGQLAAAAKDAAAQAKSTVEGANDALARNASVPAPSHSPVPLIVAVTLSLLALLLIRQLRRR

[2] = biological target: T2, E. coli H-NS (Escherichia coli, UniProt P0ACF8 1-137)
T2 sequence: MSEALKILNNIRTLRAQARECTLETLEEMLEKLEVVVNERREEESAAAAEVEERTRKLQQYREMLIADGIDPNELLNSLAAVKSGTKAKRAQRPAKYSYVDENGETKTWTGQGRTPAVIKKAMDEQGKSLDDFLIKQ

[3] = biological target: T2, E. coli H-NS; remark: listed apart in the source
[4] = biological target: T1, M. tuberculosis H-NS; remark: listed apart in the source
[5] = biological target: T1, M. tuberculosis H-NS; remark: listed apart in the source
[6] = biological target: T1, M. tuberculosis H-NS; remark: listed apart in the source

B1: dsDNA 40% GC (83 bp) (dsDNA)
DNA 1: GTACTATACGGTTGTACAGTGTTGTTAGTGAGTTGAAGATTGGAAGTAGTTTGCTAGGTGTCTTAGGAGAGAATCGTTAGTGT
DNA 2: ACACTAACGATTCTCTCCTAAGACACCTAGCAAACTACTTCCAATCTTCAACTCACTAACAACACTGTACAACCGTATAGATC
binding result [1]: binds

B2: Holliday junction (HJ) (structured_DNA)
DNA 1: GCCGTGATCACCAATGCAGATTGACGAACCTTTGCCCACGT
DNA 2: GACGTGGGCAAAGGTTCGTCAATGGACTGACAGCTGCATGG
DNA 3: GCCATGCAGCTGTCAGTCCATTGTCATGCTAGGCCTACTGC
DNA 4: GGCAGTAGGCCTAGCATGACAATCTGCATTGGTGATCACGG
Kd [1]: ~32 nM
binding result [2]: binds

B3: DNA replication fork (structured_DNA)
DNA 1: GACGTGGGCAAAGGTTCGTCAATGGACTGACAGCTGCATGG
DNA 2: GCCATGCAGCTGTCAGTCCATTGTCATGCTAGGCCTACTGC
DNA 3: GCAGTAGGCCTAGCATGA
DNA 4: CGAACCTTTGCCCACGTC
binding result [3]: binds
binding signal [4]: ~6 fold higher Kd than HJ

B4: Y-shaped junction (structured_DNA)
DNA 1: GACGTGGGCAAAGGTTCGTCAATGGACTGACAGCTGCATGG
DNA 2: GCCATGCAGCTGTCAGTCCATTGTCATGCTAGGCCTACTGC
binding signal [5]: ~7 fold higher Kd than HJ

B5: dsDNA 70% GC (83 bp) (dsDNA)
DNA 1: GCGGTGGACGGCTGGGTCGGGTGGTGAGTGGGTTGCGATGGAGGTGGTGGGCTAGGGGGCTTAGGGGGGAGTCGGTGGTGG
DNA 2: CCACCACCGACTCCCCCCTAAGCCCCCTAGCCCACCACCTCCCATCGCCAACCCACTCACCACCCGACCCAGCCGTCCACCGC
binding signal [6]: ~3 fold higher concentration for 50% binding than 40% GC dsDNA
